Patent US20220064312A1 (SHIONOGI, published 2022)
Changes are numbered by the printed parent chain. In names and notes the source's numbering stands. Where two headings read alike, the source gives them in different places. One block for each binder: values may come before it.

Columns and labels:
human CCR8 [1] = target: T1, human CCR8 (human, UniProt P51685 1-355); experiment: cell-based or functional assay
human CCR8 [2] = target: T1, human CCR8; experiment: cell-based or functional assay; remark: listed apart in the source
human CCR8 [3] = target: T1, human CCR8; experiment: cell-based or functional assay; remark: listed apart in the source
human CCR4 = target: T2, human CCR4 (human, UniProt P51679 1-360); experiment: flow cytometry, transfected Expi293 cells
T2 construct: also called hCCR4
T2 sequence: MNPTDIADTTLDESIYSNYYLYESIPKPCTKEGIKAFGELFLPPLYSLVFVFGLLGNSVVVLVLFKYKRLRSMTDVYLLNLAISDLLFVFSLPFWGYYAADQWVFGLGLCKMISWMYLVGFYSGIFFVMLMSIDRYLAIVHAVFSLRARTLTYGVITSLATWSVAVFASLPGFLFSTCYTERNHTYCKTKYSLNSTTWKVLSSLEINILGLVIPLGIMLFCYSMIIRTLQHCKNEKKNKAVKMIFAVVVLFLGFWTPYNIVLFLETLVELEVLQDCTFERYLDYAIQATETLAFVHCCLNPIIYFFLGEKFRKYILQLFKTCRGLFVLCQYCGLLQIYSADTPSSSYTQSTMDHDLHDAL

N-ter hCCR4-hCCR8 = target: T3, N-ter hCCR4-hCCR8 (human); experiment: flow cytometry, transfected Expi293 cells
T3 construct: chimera on Expi293 cells; remaining hCCR8 ranges derived from the stated swapped ranges and the 355-residue length; also called N-terminal region human CCR4-substituted human CCR8
T3 chain: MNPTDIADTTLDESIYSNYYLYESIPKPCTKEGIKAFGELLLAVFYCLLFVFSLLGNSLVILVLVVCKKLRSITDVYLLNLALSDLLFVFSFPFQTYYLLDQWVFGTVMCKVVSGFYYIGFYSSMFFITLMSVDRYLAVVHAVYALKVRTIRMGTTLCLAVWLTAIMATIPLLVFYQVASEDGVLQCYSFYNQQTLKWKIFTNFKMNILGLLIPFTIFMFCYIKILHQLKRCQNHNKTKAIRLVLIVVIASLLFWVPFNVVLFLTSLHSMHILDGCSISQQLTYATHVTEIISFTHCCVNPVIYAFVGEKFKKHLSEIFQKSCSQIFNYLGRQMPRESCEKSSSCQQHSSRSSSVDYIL

hCCR8 (Y17A) = hCCR8 (Y17A) (human, UniProt P51685 1-355); experiment: flow cytometry, transfected Expi293 cells
mouse CCR8 = target: T4, mouse CCR8 (mouse, UniProt P56484 1-353); experiment: flow cytometry, transfected Expi293 cells
T4 construct: also called mCCR8
T4 sequence: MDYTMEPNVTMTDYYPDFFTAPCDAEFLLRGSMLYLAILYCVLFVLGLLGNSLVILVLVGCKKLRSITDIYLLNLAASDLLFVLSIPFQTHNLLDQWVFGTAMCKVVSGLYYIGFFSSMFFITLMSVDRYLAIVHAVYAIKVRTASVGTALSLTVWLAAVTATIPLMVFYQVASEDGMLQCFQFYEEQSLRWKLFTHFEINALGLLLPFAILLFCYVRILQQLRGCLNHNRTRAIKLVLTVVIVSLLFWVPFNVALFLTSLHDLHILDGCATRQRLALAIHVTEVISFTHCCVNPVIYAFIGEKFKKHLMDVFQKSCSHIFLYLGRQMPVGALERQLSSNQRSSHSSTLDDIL

loop1 hCCR4-hCCR8 [4] = target: T5, loop1 hCCR4-hCCR8 (human, UniProt P51685 1-355); experiment: flow cytometry, transfected Expi293 cells
T5 construct: chimera on Expi293 cells; hCCR8 ranges derived; also called loop 1-human CCR4-substituted human CCR8

loop2 hCCR4-hCCR8 = target: T6, loop2 hCCR4-hCCR8 (human, UniProt P51685 1-355); experiment: flow cytometry, transfected Expi293 cells; Δ = significantly reduced vs hCCR8
T6 construct: chimera on Expi293 cells; hCCR8 ranges derived; also called loop2-human CCR4-substituted human CCR8

human CCR8 [5] = target: T1, human CCR8; experiment: cell-based or functional assay; remark: listed apart in the source
human CCR8 [6] = target: T1, human CCR8; experiment: cell-based or functional assay; remark: listed apart in the source
loop1 hCCR4-hCCR8 [7] = target: T5, loop1 hCCR4-hCCR8; experiment: flow cytometry, transfected Expi293 cells; Δ = significantly reduced vs hCCR8

Chain of hCCR8 (Y17A) (P51685 whole entry Y17A): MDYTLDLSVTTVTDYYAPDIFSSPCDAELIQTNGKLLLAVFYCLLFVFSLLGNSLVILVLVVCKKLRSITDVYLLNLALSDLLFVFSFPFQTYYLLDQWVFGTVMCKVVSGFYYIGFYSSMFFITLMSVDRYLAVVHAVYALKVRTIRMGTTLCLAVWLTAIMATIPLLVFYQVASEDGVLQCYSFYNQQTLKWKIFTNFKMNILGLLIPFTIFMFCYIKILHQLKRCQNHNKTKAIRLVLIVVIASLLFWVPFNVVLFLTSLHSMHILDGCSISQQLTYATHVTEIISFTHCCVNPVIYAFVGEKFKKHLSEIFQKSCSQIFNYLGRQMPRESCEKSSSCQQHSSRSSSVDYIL
T1 sequence (P51685 whole entry): as the sequence (P51685 whole entry Y17A) above, with A17Y counted along it

B1: 2-7B (antibody, V domains shown)
VH: EVQLVESDGGLVQPGRSLKLSCAASGFTFSDYYMAWVRQAPTKGLEWVATITYDVYSTYYRDSVKGRFTISRDNAKSTLYLQMDSLRSEDTATYYCARHGGDGYNSGNWFAYWGQGTLVTVSS
VL: DIVLTQSPALAVSLGQRATISCRASQSVSISRYNIMHWYQQKPGQQPKLLIYRASNLASGIPARFSGSGSGTDFTLTINPVQADDIATYYCQQSRESPPTFGGGTKLELKR
IC50 (nM), Ca2+ influx by 200 nM hCCL1 (human CCR8 [1]): 0.23 nM

B2: h10A11 (IGKV3-20/IGHV3-15 T94R) (antibody, V domains shown)
VH: EVQLVESGGALVKPGGSLRLSCAASGFTFSTYALYWVRQAPGKGLEWVGRIRSKSNNYATYYADSVKDRFTISRDDSKNTLYLQMNSLKTEDTAVYYCTRARFYYSDYGYAMDYWGQGTLVTVSS
VL: EIVLTQSPGTLSLSPGERATLSCRSSKSLLHSNGNTYLYWYQQKPGQAPRLLIYRMSNLASGIPDRFSGSGSGTDFTLTISRLEPEDFAVYYCMQHLEYPLTFGQGTKVEIKR
IC50 (nM), Ca2+ influx by 200 nM hCCL1 (human CCR8 [2]): 0.16 nM

B3: h10A11 IGKV3-20 N53Q, N28K/IGHV3-15 T94R (antibody, V domains shown)
VH: B2 VH
VL: B2 VL with N33K, N58Q
IC50 (nM), Ca2+ influx by 200 nM hCCL1 (human CCR8 [3]): 0.29 nM

B6: h10A11 (IGKV1-16/IGHV3-15 T94R) (antibody, V domains shown)
VH: B2 VH
VL: DIQMTQSPSSLSASVGDRVTITCRSSKSLLHSNGNTYLYWFQQKPGKAPKSLIYRMSNLASGVPSRFSGSGSGTDFTLTISSLQPEDFATYYCMQHLEYPLTFGQGTKLEIKR
IC50 (nM), Ca2+ influx by 200 nM hCCL1 (human CCR8 [2]): 0.7 nM

B8: h10A11 (IGKV1-39/IGHV3-73) (antibody, V domains shown)
VH: B2 VH with A10G, K13Q, R19K, T28A, S30N, P41S, L81A
VL: B6 VL with F41Y, S51L
IC50 (nM), Ca2+ influx by 200 nM hCCL1 (human CCR8 [2]): 0.16 nM

B13: 2C7 (antibody, V domains shown)
VH: QVQLKQSGPSLVQPSQSLSITCTVSGFSLTAYGVHWIRQSPGKGQEWLGVIWRGGSTDYNAAFMSRLTITKDNSKSQVFFKMNSLQADDTAIYYCAKKGGSYAMDYWGQGTSVTVSS
VL: DVVLTQTPLSLPVSLGGQASISCRSSQSLVHSNGNTYLHWYLQKPGQSPKLLIYKVSNRFSGVPDRFSGSGSGTDFTLKISRVEAEDLGVYFCSQSTQVPLTFGAGTKLELKR
notes: mouse hybridoma antibody
binding result (human CCR4): no binding
binding result (N-ter hCCR4-hCCR8): no binding
binding result (hCCR8 (Y17A)): no binding
binding result (mouse CCR8): no binding
binding result (loop1 hCCR4-hCCR8 [4]): no binding
IC50 (nM), Ca2+ influx by 200 nM hCCL1 (human CCR8 [1]): 1.19 nM
binding result (loop2 hCCR4-hCCR8): binds
Neutralizing Activity IC50 (nM), Ca2+ influx by 100 nM hCCL1 (human CCR8 [5]): 0.4 nM

B15: 27G1 (antibody, V domains shown)
VH: EVQLVESGGRLVQPKGSLKLSCAASGFAFNTYAMYWIRQAPGKGLEWVARIRSKSNNYATYYADSVKDRFTISRDDSQSMLYLQMNNLKTEDTAMYYCVRARFYYSDYGYAMDYWGQGTSVTVSS
VL: DIVMTQAAPSVPVTPGESVSISCRSSKSLLHSNGNTYLYWFLQRPGQSPQLLIYRMSNLASGVPDRFSGSGSGTAFTLRISRVEAEDVGVYYCMQHLEYPLTFGAGTKLELKR
notes: mouse hybridoma antibody
binding result (human CCR4): no binding
binding result (N-ter hCCR4-hCCR8): no binding
binding result (hCCR8 (Y17A)): no binding
binding result (mouse CCR8): no binding
binding result (loop2 hCCR4-hCCR8): binds
binding result (loop1 hCCR4-hCCR8 [7]): binds
Neutralizing Activity IC50 (nM), Ca2+ influx by 100 nM hCCL1 (human CCR8 [5]): 0.09 nM

B16: 8F7 (antibody, V domains shown)
VH: EVQLVESGGRLVQPKRSLKLSCAASGFTFNPYAMYWIRQAPGQGLEWVARIRSKSNNYATYYADSVKDRFTISRDDSQSMLYLQMNNLKTEDTAMYYCVRGHQGTMDYWGQGTSVTVSS
VL: B15 VL with I53T, L101F, A105G, L111I
notes: mouse hybridoma antibody
binding result (human CCR4): no binding
binding result (N-ter hCCR4-hCCR8): no binding
binding result (hCCR8 (Y17A)): no binding
binding result (mouse CCR8): no binding
binding result (loop1 hCCR4-hCCR8 [4]): no binding
IC50 (nM), Ca2+ influx by 200 nM hCCL1 (human CCR8 [1]): 3.03 nM
binding result (loop2 hCCR4-hCCR8): binds
Neutralizing Activity IC50 (nM), Ca2+ influx by 100 nM hCCL1 (human CCR8 [5]): 1.56 nM

B17: 10A11 (antibody, V domains shown)
VH: B15 VH with M34L
VL: B15 VL
notes: mouse hybridoma antibody; also called m10A11; clone No. 10A11
binding result (human CCR4): no binding
binding result (N-ter hCCR4-hCCR8): no binding
binding result (hCCR8 (Y17A)): no binding
binding result (mouse CCR8): no binding
IC50 (nM), Ca2+ influx by 200 nM hCCL1 (human CCR8 [1]): 0.23 nM
binding result (loop2 hCCR4-hCCR8): binds
binding result (loop1 hCCR4-hCCR8 [7]): binds
Neutralizing Activity IC50 (nM), Ca2+ influx by 100 nM hCCL1 (human CCR8 [5]): 0.08 nM
IC50 (nM), Ca2+ influx by 200 nM hCCL1 (human CCR8 [2]): 0.23 nM

Now from value to binder:

IC50 (nM), Ca2+ influx by 200 nM hCCL1 (human CCR8 [2]): 0.2 nM
B4: h10A11 (IGKV1-39/IGHV3-15 T94R) (antibody, V domains shown)
VH: B2 VH
VL: B6 VL with F41Y, S51L

IC50 (nM), Ca2+ influx by 200 nM hCCL1 (human CCR8 [3]): 0.19 nM
B5: h10A11 IGKV3-20 N53Q, G29R/IGHV3-15 T94R (antibody, V domains shown)
VH: B2 VH
VL: B2 VL with G34R, N58Q

IC50 (nM), Ca2+ influx by 200 nM hCCL1 (human CCR8 [2]): 0.2 nM
B7: h10A11 (IGKV2-28/IGHV3-73) (antibody, V domains shown)
VH: B2 VH with A10G, K13Q, R19K, T28A, S30N, P41S, L81A
VL: DIVMTQSPLSLPVTPGEPASISCRSSKSLLHSNGNTYLYWYLQKPGQSPQLLIYRMSNLASGVPDRFSGSGSGTDFTLKISRVEAEDVGVYYCMQHLEYPLTFGQGTKVEIKR

IC50 (nM), Ca2+ influx by 200 nM hCCL1 (human CCR8 [3]): 0.12 nM
B9: h10A11 IGKV4-1 N53Q, G29R/IGHV3-15 T94R (antibody, V domains shown)
VH: B2 VH
VL: DIVMTQSPDSLAVSLGERATINCRSSKSLLHSNRNTYLYWYQQKPGQPPKLLIYRMSQLASGVPDRFSGSGSGTDFTLTISSLQAEDVAVYYCMQHLEYPLTFGQGTKLEIKR

IC50 (nM), Ca2+ influx by 200 nM hCCL1 (human CCR8 [2]): 0.21 nM
B10: h10A11 (IGKV2-40/IGHV3-73) (antibody, V domains shown)
VH: B2 VH with A10G, K13Q, R19K, T28A, S30N, P41S, L81A
VL: B7 VL with S7T, V109L

IC50 (nM), Ca2+ influx by 200 nM hCCL1 (human CCR8 [2]): 0.3 nM
B11: h10A11 (IGKV2-40/IGHV3-15 T94R) (antibody, V domains shown)
VH: B2 VH
VL: B7 VL with S7T, V109L

IC50 (nM), Ca2+ influx by 200 nM hCCL1 (human CCR8 [3]): 0.21 nM
B12: h10A11 IGKV3-20 N53Q, G29L/IGHV3-15 T94R (antibody, V domains shown)
VH: B2 VH
VL: B2 VL with G34L, N58Q

IC50 (nM), Ca2+ influx by 200 nM hCCL1 (human CCR8 [6]): 0.46 nM
B14: h19D7 (IGKV2-18/IGHV3-73) (antibody, V domains shown)
VH: EVQLVESGGGLVQPGGSLKLSCAASGFTFSTYAMYWVRQASGKGLEWVGRIRSKSNNYATYYADSVKDRFTISRDDSKNTAYLQMNSLKTEDTAVYYCTRGGYGNYRYAMDYWGQGTTVTVSS
VL: DIVMTQTPPSLPVNPGEPASISCRSSKSLLHSNGNTYLYWYLQKPGQSPQLLIYRVSNLASGVPDRFSGSGSGSDFTLKISWVEAEDVGVYYCMQHLEYPFTFGQGTKLEIK
